Experimental data reported in patent publication US20240261333A1, “NOVEL TARGETS FOR ENHANCING ANTI-TUMOR IMMUNITY” (THE BROAD INSTITUTE, INC., priority 2021, published 2024).

Assays:
CASP14 (human) = CASP14 (human) (UniProt P31944); assay: co-IP/MS, anti-FLAG IP of N-FLAG B3GNT2 cell lysate
ERLIN1 (human) = ERLIN1 (human) (UniProt O75477); assay: as above
ERLIN2 (human) = ERLIN2 (human) (UniProt O94905); assay: as above
GCN1 (human) = GCN1 (human) (UniProt Q92616); assay: as above
HSD17B12 (human) = HSD17B12 (human) (UniProt Q53GQ0); assay: as above
PCBP1 (human) = PCBP1 (human) (UniProt Q15365); assay: as above
PIP (human) = PIP (human) (UniProt P12273); assay: as above
RPL12 (human) = RPL12 (human) (UniProt P30050); assay: as above
RPL13A (human) = RPL13A (human) (UniProt P40429); assay: as above
RPLPO (human) = RPLPO (human) (UniProt P05388); assay: as above
RPS12 (human) = RPS12 (human) (UniProt P25398); assay: as above
SLC25A4 (human) = SLC25A4 (human) (UniProt P12235); assay: as above
SQSTM1 (human) = SQSTM1 (human) (UniProt Q13501); assay: as above
ARPC4 (human) = ARPC4 (human) (UniProt P59998); assay: co-IP, IgG control, lysate of cells with N-FLAG B3GNT2; mass spectrometry
ATXN2 (human) = ATXN2 (human) (UniProt Q99700); assay: as above
DDX5 (human) = DDX5 (human) (UniProt P17844); assay: as above
FUBP3 (human) = FUBP3 (human) (UniProt Q96I24); assay: as above
G3BP1 (human) = G3BP1 (human) (UniProt Q13283); assay: as above
LMNA (human) = LMNA (human) (UniProt P02545); assay: as above
MYH11 (human) = MYH11 (human) (UniProt P35749); assay: as above
NUFIP2 (human) = NUFIP2 (human) (UniProt Q7Z417); assay: as above
PRBP1 (human) = PRBP1 (human) (UniProt P26599); assay: as above
PRRC2A (human) = PRRC2A (human) (UniProt P48634); assay: as above
PUM1 (human) = PUM1 (human) (UniProt Q14671); assay: as above
RPL13 (human) = RPL13 (human) (UniProt P26373); assay: as above
RPS28 (human) = RPS28 (human) (UniProt P62857); assay: as above
RPS3 (human) = RPS3 (human) (UniProt P23396); assay: as above

Sequence of CASP14 (human) (P31944 whole entry): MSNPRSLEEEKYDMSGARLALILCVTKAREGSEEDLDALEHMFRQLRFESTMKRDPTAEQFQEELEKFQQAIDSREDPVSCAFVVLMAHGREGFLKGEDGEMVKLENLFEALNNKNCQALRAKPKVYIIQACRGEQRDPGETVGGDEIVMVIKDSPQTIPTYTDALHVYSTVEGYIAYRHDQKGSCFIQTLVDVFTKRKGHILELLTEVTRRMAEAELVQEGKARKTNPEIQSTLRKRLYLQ
Sequence of ERLIN2 (human) (O94905 whole entry): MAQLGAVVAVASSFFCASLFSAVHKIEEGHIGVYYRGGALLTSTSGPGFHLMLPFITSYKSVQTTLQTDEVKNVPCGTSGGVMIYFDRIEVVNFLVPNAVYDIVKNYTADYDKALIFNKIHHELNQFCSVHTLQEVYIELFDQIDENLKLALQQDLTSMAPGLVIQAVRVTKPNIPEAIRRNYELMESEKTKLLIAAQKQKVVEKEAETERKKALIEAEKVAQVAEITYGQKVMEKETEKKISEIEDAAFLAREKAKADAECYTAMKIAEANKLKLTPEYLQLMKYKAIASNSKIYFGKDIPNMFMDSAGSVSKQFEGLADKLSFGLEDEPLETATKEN
Sequence of ERLIN1 (human) (O75477 whole entry): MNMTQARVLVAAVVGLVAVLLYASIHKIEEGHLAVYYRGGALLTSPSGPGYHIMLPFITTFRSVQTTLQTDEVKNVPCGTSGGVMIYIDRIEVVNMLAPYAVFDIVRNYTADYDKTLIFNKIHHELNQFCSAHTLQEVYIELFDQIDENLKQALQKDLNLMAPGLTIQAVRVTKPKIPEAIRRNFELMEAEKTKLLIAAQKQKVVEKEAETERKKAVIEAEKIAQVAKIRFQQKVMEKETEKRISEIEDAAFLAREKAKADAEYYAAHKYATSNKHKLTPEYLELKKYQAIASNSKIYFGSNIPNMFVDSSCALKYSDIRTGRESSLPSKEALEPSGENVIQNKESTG
Sequence of ATXN2 (human) (Q99700 whole entry): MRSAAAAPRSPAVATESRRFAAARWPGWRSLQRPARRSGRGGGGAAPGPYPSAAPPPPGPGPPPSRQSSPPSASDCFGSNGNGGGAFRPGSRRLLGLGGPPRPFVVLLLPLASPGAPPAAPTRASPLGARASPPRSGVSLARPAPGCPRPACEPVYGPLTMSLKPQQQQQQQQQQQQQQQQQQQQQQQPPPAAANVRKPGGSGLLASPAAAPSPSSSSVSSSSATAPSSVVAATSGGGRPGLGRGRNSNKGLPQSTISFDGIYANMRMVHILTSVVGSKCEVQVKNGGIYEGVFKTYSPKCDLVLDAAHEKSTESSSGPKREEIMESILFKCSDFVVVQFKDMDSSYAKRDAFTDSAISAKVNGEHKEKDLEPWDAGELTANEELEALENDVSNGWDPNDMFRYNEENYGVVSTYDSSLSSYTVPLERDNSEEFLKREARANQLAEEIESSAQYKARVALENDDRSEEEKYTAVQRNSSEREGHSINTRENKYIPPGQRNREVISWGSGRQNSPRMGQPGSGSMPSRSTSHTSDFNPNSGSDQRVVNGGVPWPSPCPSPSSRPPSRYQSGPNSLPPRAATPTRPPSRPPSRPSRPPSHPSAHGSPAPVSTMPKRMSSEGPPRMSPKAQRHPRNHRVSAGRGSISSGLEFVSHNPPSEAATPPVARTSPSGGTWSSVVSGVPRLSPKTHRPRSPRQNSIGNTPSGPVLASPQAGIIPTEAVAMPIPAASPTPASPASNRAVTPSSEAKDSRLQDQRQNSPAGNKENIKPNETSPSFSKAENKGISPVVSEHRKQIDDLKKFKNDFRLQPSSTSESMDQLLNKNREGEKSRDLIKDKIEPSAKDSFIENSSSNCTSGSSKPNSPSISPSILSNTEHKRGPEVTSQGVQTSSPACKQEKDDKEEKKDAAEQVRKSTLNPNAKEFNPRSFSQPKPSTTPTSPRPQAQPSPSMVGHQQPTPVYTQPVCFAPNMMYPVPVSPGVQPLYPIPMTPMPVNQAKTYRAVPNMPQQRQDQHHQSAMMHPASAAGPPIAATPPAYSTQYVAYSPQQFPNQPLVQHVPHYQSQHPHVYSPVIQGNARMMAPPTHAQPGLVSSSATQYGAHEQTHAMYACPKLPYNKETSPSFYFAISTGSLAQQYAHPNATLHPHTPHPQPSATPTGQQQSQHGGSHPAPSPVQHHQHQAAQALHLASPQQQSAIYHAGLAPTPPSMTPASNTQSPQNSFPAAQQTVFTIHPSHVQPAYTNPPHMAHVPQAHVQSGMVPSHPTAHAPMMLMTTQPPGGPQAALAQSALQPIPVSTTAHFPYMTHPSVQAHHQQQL
Sequence of PRBP1 (human) (P26599 whole entry): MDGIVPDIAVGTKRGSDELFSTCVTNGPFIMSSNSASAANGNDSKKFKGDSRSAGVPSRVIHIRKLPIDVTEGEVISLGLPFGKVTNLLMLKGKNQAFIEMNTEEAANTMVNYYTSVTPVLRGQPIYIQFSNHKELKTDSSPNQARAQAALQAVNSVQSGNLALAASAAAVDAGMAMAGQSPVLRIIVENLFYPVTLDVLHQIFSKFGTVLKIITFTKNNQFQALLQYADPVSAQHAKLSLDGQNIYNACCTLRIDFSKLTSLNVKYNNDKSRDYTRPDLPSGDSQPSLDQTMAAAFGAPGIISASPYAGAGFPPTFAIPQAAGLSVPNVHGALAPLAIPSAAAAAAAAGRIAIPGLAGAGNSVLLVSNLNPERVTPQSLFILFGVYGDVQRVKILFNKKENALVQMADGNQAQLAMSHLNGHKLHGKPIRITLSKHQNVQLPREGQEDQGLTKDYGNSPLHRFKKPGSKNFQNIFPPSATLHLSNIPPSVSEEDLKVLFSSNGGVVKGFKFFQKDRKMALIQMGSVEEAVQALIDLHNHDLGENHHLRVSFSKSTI
Sequence of SLC25A4 (human) (P12235 2-298 limits assumed): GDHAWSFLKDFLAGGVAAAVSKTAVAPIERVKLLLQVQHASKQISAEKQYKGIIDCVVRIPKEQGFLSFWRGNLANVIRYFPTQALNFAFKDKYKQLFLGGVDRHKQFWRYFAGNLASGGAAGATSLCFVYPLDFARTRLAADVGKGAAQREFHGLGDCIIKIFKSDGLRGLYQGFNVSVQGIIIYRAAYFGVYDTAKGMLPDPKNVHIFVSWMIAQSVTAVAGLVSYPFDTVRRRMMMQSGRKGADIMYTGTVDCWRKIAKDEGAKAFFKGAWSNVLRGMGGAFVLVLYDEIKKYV
Sequence of PIP (human) (P12273 29-146 limits assumed): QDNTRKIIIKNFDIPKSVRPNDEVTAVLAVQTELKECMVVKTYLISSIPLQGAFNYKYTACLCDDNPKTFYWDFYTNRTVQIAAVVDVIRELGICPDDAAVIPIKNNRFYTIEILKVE
Sequence of NUFIP2 (human) (Q7Z417 whole entry): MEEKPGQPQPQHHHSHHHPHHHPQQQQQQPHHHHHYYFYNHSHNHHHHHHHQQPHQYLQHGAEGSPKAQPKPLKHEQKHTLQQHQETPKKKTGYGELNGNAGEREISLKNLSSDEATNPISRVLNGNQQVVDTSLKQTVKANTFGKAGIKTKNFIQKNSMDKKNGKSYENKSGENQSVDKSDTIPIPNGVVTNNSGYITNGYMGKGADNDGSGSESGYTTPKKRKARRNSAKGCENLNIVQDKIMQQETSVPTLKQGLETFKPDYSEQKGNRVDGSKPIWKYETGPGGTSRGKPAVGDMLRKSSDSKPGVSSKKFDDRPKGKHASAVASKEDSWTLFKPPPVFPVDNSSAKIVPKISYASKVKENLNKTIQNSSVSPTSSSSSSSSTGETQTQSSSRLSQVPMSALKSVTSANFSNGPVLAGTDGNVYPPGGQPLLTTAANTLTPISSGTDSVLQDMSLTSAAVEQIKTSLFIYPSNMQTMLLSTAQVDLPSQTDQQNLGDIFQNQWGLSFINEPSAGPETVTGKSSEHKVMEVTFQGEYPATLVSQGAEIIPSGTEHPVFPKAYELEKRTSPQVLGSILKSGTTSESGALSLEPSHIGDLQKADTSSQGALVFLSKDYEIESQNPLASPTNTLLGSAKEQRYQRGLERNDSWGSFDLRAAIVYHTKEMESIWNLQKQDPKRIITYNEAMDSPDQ
Sequence of G3BP1 (human) (Q13283 2-466 limits assumed): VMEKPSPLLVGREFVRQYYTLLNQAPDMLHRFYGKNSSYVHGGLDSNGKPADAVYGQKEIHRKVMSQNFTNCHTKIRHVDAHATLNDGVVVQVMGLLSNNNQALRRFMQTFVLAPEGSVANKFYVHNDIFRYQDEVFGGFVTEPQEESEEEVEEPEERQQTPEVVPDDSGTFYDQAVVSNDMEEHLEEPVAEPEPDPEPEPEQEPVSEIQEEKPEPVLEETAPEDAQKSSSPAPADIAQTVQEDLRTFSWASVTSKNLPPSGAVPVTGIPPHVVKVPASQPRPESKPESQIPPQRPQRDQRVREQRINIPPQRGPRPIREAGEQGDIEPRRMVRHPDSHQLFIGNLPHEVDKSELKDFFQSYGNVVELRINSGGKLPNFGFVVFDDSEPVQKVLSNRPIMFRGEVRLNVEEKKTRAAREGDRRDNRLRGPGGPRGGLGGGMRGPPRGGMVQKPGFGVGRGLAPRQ
Sequence of HSD17B12 (human) (Q53GQ0 whole entry): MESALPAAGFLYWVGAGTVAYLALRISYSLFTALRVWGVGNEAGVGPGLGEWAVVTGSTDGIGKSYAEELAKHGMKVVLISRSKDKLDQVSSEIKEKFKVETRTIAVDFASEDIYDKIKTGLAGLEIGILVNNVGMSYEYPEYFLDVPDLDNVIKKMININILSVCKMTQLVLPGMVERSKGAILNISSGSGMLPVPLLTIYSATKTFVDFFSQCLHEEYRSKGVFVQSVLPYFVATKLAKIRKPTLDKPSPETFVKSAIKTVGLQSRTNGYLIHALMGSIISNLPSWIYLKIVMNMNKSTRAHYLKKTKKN

N-terminal FLAG tagged B3GNT2 (from UniProt Q9NY97 1-397) (enzyme)
co-IP mass spectrometry count (CASP14 (human)): 8
co-IP mass spectrometry count (ERLIN1 (human)): 11
co-IP mass spectrometry count (ERLIN2 (human)): 8
co-IP mass spectrometry count (GCN1 (human)): 14
co-IP mass spectrometry count (HSD17B12 (human)): 10
co-IP mass spectrometry count (PCBP1 (human)): 4
co-IP mass spectrometry count (PIP (human)): 4
co-IP mass spectrometry count (RPL12 (human)): 9
co-IP mass spectrometry count (RPL13A (human)): 4
co-IP mass spectrometry count (RPLPO (human)): 6
co-IP mass spectrometry count (RPS12 (human)): 3
co-IP mass spectrometry count (SLC25A4 (human)): 9
co-IP mass spectrometry count (SQSTM1 (human)): 3

IgG control (Millipore Sigma 12-371) (antibody)
co-IP mass spectrometry count (ARPC4 (human)): 0
co-IP mass spectrometry count (ATXN2 (human)): 3
co-IP mass spectrometry count (DDX5 (human)): 18
co-IP mass spectrometry count (FUBP3 (human)): 8
co-IP mass spectrometry count (G3BP1 (human)): 29
co-IP mass spectrometry count (LMNA (human)): 11
co-IP mass spectrometry count (MYH11 (human)): 3
co-IP mass spectrometry count (NUFIP2 (human)): 3
co-IP mass spectrometry count (PRBP1 (human)): 7
co-IP mass spectrometry count (PRRC2A (human)): 3
co-IP mass spectrometry count (PUM1 (human)): 0
co-IP mass spectrometry count (RPL13 (human)): 6
co-IP mass spectrometry count (RPS28 (human)): 0
co-IP mass spectrometry count (RPS3 (human)): 13
